For one substance, MFI and Mean Fluorescence Intensity (MFI) results are on record in patent publication US20190284299A1.

The target in assay [1] is CD3 on Jurkat cells (Homo sapiens (Human)) (UniProt P07766). As to the kind of experiment: flow cytometry on Jurkat cells, 5 nM, anti-human IgG-FITC. On the technique in general: A flow cytometer gives signals particle by particle.
For assay [2] the target is unchanged. As to the kind of experiment: flow cytometry on Jurkat cells, as in Example 8.
The target is the same in assay [3]. As to the kind of experiment: flow cytometry on Jurkat cells, as in Example 8. This is another data set of the same source.
Assay [4] has the same target. As to the kind of experiment: flow cytometry on Jurkat cells, as in Example 8. The source holds these as a separate data set.
The target of another assay is HER2 on SK-BR-3 cells (UniProt P04626). As to the kind of experiment: flow cytometry on SK-BR-3 cells, 0.5 nM, anti-human IgG-FITC.
Another assay deals with CD20 on Raji cells (UniProt P11836). As to the kind of experiment: flow cytometry on Raji cells, as in Example 8.
CD20 on Raji cells, sequence (P11836 whole entry): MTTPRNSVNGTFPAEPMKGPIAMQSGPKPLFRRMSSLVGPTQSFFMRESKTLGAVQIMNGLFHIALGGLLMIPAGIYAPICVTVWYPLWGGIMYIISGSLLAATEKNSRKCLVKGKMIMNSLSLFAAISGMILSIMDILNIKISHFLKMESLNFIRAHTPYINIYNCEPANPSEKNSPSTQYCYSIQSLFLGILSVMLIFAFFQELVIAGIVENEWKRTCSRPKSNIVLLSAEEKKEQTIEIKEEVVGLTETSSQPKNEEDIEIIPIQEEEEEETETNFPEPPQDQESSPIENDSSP

CD3 on Jurkat cells (Homo sapiens (Human)), sequence (P07766 23-207 limits assumed, form in doubt, chain 1 of 3): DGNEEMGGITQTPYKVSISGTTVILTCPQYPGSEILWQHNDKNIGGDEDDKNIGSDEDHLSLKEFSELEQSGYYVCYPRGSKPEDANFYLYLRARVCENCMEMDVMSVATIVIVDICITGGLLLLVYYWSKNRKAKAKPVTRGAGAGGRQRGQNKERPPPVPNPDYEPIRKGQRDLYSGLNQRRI
CD3 on Jurkat cells (Homo sapiens (Human)), sequence (delta, as listed by the source limits assumed, form in doubt, chain 2 of 3): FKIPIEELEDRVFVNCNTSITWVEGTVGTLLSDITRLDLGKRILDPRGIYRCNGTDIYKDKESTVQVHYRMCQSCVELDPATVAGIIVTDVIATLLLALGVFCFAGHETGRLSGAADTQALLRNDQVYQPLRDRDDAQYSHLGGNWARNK
CD3 on Jurkat cells (Homo sapiens (Human)), sequence (gamma, as listed by the source limits assumed, form in doubt, chain 3 of 3): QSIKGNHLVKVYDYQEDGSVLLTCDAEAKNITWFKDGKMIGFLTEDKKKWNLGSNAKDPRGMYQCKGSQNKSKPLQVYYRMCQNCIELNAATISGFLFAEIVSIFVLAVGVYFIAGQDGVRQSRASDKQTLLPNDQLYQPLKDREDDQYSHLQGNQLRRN

As to “isotype control (human immunoglobulin, Jiangxi Boya Bio-pharmaceutical, Approval No.S19993012) (antibody)”, the MFI in assay [1] was 3.16; in assay [2] it was 2.7; in assay [3] it was 3.34; in assay [4], 2.75; with CD20 on Raji cells, 2.77. The Mean Fluorescence Intensity (MFI) in the assay with HER2 on SK-BR-3 cells turned out to be 2.88.
